Laboratory results reported in the RNAGym collection of RNA variant scans (doi:10.1073/pnas.2313332121).
This sample holds only a part of the variants without activity.

B1: TPR 5TU (parent)
chain: GGAUCUUCUCGAUCUAACAAAAAAGACAAAUCUGCCACAAAGCUUGAGAGCAUCUUCGGAUGCAGAGGCGGCAGCCUUCGGUGGCGCGAUAGCGCCAACGUUCUCAACUAUGACACGCAAAACGCGUGCUCCGUUGAAUGGAGUUUAUCAUG

Variants of: B1
Test: polymerase ribozyme fitness, log enrichment relative to wild type (log ratio); higher = more active; in vitro selection for triplet polymerase activity
Summary of the method: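 One round of in vitro selection, in triplicate, was applied to PCR-built, transcribed mutant libraries of each subunit of a heterodimeric triplet polymerase ribozyme. The steps were annealing with a biotinylated primer, partner subunit and triplets, incubation frozen at −7 °C, gel excision of extended constructs, streptavidin-bead capture and RT-PCR. Fitness is the logarithm, base 2, of genotype enrichment over wild-type enrichment from inverse-variance-weighted replicate averages of Illumina-sequenced inputs and outputs, keeping genotypes with ≥10 input reads and ≥1 read per output.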

Variant	polymerase ribozyme fitness (log ratio)
U7C C10U A40C C85A A89C G100A C116A	≤ -4.2
C10A A37U G48A A64G G128U A142C	≤ -4.2
U9A C149G	≤ -4.2
C8U A24U U55G C69U G74U C87A A138U	≤ -4.2
U9C C93A	≤ -4.2
C8U G141U	-2.76
C10A A12G U53A U55A G92C G94C C105U	≤ -4.2
C8U A39C G59C C96U C103A C114U C116U	≤ -4.2
U7G U15G A21C A39G U45G G92U U127C	≤ -4.2
C10G A20C U33G C93A G94U C96G C114U U145A	≤ -4.2
U9A C93G	≤ -4.2
C10A A17C A20C G34U G58C U90G	≤ -4.2
U7C U9C A20U C75G C93U A106C C114A	≤ -4.2
C8A A20U G42C C43G U44A A113U A142C	≤ -4.2
C8A A20G G68C C85A G126A	≤ -4.2
C10A C54G A73U A120U	≤ -4.2
C8G A24G C76A U139A A142C U144C U148G	≤ -4.2
C10A C54G G80C G81A C85U C129A U135C	≤ -4.2
U9C U31A U55A G59C U82G C108A C129G U144C	≤ -4.2
C8U G94A	-3.24
U9C C14U C57G C93G G140U	≤ -4.2

Variant	polymerase ribozyme fitness (log ratio)
U7G U15G U56G C93A A115C U130G	≤ -4.2
C8G A17G A21U A98G	-3.93
C8U C57U G71C G86A U104A	≤ -4.2
U7G A22U C43U C93A A142G	≤ -4.2
C10A A41C C76A A91U C96G A121C U127G	≤ -4.2
C8A C32G A47U C54G G92U	≤ -4.2
C10A A37U C79A C85U C87A	≤ -4.2
C8G C32U G80U	-4.14
C8U A52U C54U G83A C118A U127G	≤ -4.2
C10A A12G A60G C93A	≤ -4.2
C8G A41U U55G U56A G65A G70C U78A G81A C93A A122U	≤ -4.2
U7G A26U U56G G59C G83A C96U A138C	≤ -4.2
C8U C99A	-3.69
C8U A60U	-3.79
C10G A20G G50U G59C C87U	≤ -4.2
U9G C43A C54A C75G C93G U146A	≤ -4.2
C8A A40U G42A G68A C85U U144G	≤ -4.2
U7C C35U U127G	-3.61
U7G A60G	-2.7
C8U C93A	≤ -4.2
C8A A30U C43G U144C	≤ -4.2

Variant	polymerase ribozyme fitness (log ratio)
U9G C14G A110C C123U G141A	≤ -4.2
C8G C57A G84U C114U U148C A150C	≤ -4.2
C8G A41U A49C G62A C79U C85U C96U C114G A115G	≤ -4.2
U9C G58C A91G C105G A110G	≤ -4.2
C8U C87A	≤ -4.2
C8U U13A A40C U44G C93G	≤ -4.2
C8A C76A C85U G143C A150U	≤ -4.2
C8G A22G U44A A52C A73C C125G	≤ -4.2
U7G A12C C51G A64C C123U C132G	≤ -4.2
U7C G50C C51U C87U G152U	≤ -4.2
C8U A26U U44A C85U A115U C118A G133U	≤ -4.2
C8G A52G C57U G80C U104G U148G	≤ -4.2
C8U A22U A37C C57G C99A U148A G152A	≤ -4.2
U9G A24U C96U U144G	≤ -4.2
C10G A12G C27G A49G G62C G67A G68U C93U	≤ -4.2
U7G G34U A60U C93U A107U	≤ -4.2
C8A A17U A39U C85U U139A	≤ -4.2
U7G A24C C43A A47G C75U C85A G86A C103G	≤ -4.2
U7G C8A G46C C63U G83C C85G C114G C149A	≤ -4.2
U7C C27G C57G G88C G124A U134G	≤ -4.2
C8U C54A	-3.8

Variant	polymerase ribozyme fitness (log ratio)
C8U C79A G92A C105A	≤ -4.2
U9G U33A C36A C63U C79G C118A U135A	≤ -4.2
C8U U56G G59A G65A G84U A91G	≤ -4.2
C8G C63U G68A G92A A107U A142G	≤ -4.2
C8U A17G A30U C95U G126A U148G	≤ -4.2
U7G A20C U56A C72G A73G C85U C93G A98G A115U	≤ -4.2
C8A U53A A73U G74U G92U A142U G143A	≤ -4.2
U9C C85U	-3.24
C8U A17U G42C C116U C125U U146G	≤ -4.2
C8U U33A C38U G62A	≤ -4.2
C10A A17C A41G C54G U55A C85U C95U U104G G126U A138G G152U	≤ -4.2
U9C A37C U55G A66C G70C C76A C131U	≤ -4.2
C10A A17C G34A A91C U102G G140U	-3.67
U9G A21U A24G C72U A147C	≤ -4.2
U9G G58C C93G C118U G143A U144C	≤ -4.2
C8G A28G U61A U104A A110U A120G A138C	≤ -4.2
C8G G67C G92U C99U A107U U148A	≤ -4.2
C10A C27G G46A C75A C96A	≤ -4.2
U9C C27U G84U G126U	≤ -4.2
C8A C14U A16U U33G A47U C57A C93A A142U	≤ -4.2
